Test [1] addresses T1, P2 peptide comprising SEQ ID NO: 31 (human fibrin γ377-395) (human).
T1 construct: Bought (CPC Scientific 920712); also called human P2 peptide
T1 peptide: YSMKKTTMKIIPFNRLTIG
Put plainly: ELISA on plate-coated human P2 peptide, antibody titrated, A450. The method, then: (§1) The humanized antibodies affinity for fibrinogen, fibrin and P2 peptide were assessed by Enzyme-linked immunosorbent assays (ELISA)s (FIGS. 7-16). ELISAs for fibrinogen binding were performed using plasminogen-depleted human Fibrinogen (EMD/Calbiochem). […] IgG1-depleted Fibrinogen (FGN) in 20 mM HEPES/Saline buffer was added to each well of half of a 96-well Nunc Maxisorp™ ELISA plate. The ELISAs for fibrin binding were prepared by adding 50 mL of 20 mM HEPES/Saline buffer containing 14 mM CaCl₂, and 2 units thrombin to each well of the second half of the Nunc Maxisorp™ ELISA plate. 50 mL of 20 mg fibrinogen in 20 mM HEPES/Saline buffer were then added to a total volume of 100 mL. Plates were placed in a 37° C. incubator for 1 hour to allow fibrinogen to clot into fibrin and subsequently placed overnight into a plate dryer at 37° C. overnight. The ELISAs for P2 peptide were prepared by addition of […] of 30 mM P2 peptide in 20 mM HEPES/Saline buffer to each well of a 96-well Nunc Maxisorp™ ELISA plate. Plates were transferred to the plate dryer and dried overnight at 37° C. All ELISAs were preformed using Nunc MaxiSorp 96-well ELISA plates. Blocking was performed using 100 mL 5% BSA in DPBS are incubated at RT for 1 hour. Plates were washed 5× in DPBS containing 0.05% Tween-20 (EL406 was used for the addition of wash buffer only). […]
In general terms: ELISA stands for enzyme-linked immunosorbent assay.

Test [2] deals with T2, human Fibrin (human fibrinogen clotted on the plate with thrombin and CaCl2) (human, UniProt P02671 36-629; P02675 45-491; P02679 27-437).
T2 construct: Made in the ELISA wells from the human fibrinogen by thrombin and CaCl2, 1 hour at 37 C, then dried
T2 sequence (looked up) 1: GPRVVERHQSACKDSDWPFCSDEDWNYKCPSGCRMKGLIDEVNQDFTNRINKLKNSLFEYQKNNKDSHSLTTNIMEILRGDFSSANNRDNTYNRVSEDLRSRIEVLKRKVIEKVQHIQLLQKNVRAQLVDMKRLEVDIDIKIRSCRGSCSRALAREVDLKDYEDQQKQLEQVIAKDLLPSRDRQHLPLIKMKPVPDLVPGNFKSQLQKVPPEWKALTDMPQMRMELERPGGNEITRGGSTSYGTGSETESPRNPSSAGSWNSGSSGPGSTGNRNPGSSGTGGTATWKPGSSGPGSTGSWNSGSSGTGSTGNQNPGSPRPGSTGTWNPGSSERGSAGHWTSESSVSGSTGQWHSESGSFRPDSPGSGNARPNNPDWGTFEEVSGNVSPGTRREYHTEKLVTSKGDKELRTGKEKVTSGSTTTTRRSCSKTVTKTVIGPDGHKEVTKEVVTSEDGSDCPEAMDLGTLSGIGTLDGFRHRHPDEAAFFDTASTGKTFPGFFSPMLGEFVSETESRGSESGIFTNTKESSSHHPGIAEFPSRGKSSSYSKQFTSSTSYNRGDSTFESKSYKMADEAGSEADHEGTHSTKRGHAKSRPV
T2 sequence (looked up) 2: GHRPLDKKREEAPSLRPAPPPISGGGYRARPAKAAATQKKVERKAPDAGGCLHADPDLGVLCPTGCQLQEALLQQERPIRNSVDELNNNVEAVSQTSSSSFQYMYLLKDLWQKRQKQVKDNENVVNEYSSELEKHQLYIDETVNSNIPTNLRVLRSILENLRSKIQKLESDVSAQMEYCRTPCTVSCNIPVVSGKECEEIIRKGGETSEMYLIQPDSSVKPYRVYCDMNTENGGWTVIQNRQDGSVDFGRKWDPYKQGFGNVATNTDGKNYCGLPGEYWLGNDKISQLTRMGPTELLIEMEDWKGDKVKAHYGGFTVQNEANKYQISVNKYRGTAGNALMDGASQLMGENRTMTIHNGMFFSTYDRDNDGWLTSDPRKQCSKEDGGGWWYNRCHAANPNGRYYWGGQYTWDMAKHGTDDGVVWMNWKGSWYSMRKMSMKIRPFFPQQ
T2 sequence (looked up) 3: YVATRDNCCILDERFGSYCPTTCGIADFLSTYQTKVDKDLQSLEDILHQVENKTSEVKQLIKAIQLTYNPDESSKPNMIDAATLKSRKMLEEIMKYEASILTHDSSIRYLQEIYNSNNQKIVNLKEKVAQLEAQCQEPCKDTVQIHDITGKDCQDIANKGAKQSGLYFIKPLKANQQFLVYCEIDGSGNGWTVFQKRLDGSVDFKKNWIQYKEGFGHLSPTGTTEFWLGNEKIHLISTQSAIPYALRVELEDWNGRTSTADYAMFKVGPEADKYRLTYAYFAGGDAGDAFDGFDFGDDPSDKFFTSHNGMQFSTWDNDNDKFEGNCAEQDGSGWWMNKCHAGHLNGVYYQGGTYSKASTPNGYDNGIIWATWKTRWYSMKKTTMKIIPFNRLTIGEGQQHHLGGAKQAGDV
Put plainly: ELISA on human fibrin formed on the plate. The procedure: (§2) The humanized antibodies affinity for fibrinogen, fibrin and P2 peptide were assessed by Enzyme-linked immunosorbent assays (ELISA)s (FIGS. 7-16). ELISAs for fibrinogen binding were performed using plasminogen-depleted human Fibrinogen (EMD/Calbiochem). […] IgG1-depleted Fibrinogen (FGN) in 20 mM HEPES/Saline buffer was added to each well of half of a 96-well Nunc Maxisorp™ ELISA plate. The ELISAs for fibrin binding were prepared by adding 50 mL of 20 mM HEPES/Saline buffer containing 14 mM CaCl₂, and 2 units thrombin to each well of the second half of the Nunc Maxisorp™ ELISA plate. 50 mL of 20 mg fibrinogen in 20 mM HEPES/Saline buffer were then added to a total volume of 100 mL. Plates were placed in a 37° C. incubator for 1 hour to allow fibrinogen to clot into fibrin and subsequently placed overnight into a plate dryer at 37° C. overnight. The ELISAs for P2 peptide were prepared by addition of […] of 30 mM P2 peptide in 20 mM HEPES/Saline buffer to each well of a 96-well Nunc Maxisorp™ ELISA plate. Plates were transferred to the plate dryer and dried overnight at 37° C. All ELISAs were preformed using Nunc MaxiSorp 96-well ELISA plates. Blocking was performed using 100 mL 5% BSA in DPBS are incubated at RT for 1 hour. Plates were washed 5× in DPBS containing 0.05% Tween-20 (EL406 was used for the addition of wash buffer only). 50 mL of primary antibodies was diluted in 0.5% BSA in DPBS, and the primary antibodies were added to the plates and incubated for 2 hours at 37° C. Plates were washed 5× in DPBS/Tween. 100 mL secondary antibodies were diluted in 0.5% BSA in DPBS. The secondary antibodies were then added to the plates and incubated for 1 hour at RT. Afterwards, plates were washed 5× in DPBS/Tween. 100 mL of TMB/E substrate solution was added, and the reaction was stopped after 5 minutes with 1N HCl.

In test [3] the target is T1, P2 peptide comprising SEQ ID NO: 31 …. Nature of the test: ELISA on coated P2 peptide. The method, then: as §2
In test [4] the target is T3, plasminogen-depleted human Fibrinogen (EMD/Calbiochem) (human, UniProt P02671 20-629; P02675 31-491; P02679 27-437, limits assumed).
T3 construct: Bought protein, IgG-depleted, coated on ELISA plates; also called FGN
T3 sequence (looked up) 1: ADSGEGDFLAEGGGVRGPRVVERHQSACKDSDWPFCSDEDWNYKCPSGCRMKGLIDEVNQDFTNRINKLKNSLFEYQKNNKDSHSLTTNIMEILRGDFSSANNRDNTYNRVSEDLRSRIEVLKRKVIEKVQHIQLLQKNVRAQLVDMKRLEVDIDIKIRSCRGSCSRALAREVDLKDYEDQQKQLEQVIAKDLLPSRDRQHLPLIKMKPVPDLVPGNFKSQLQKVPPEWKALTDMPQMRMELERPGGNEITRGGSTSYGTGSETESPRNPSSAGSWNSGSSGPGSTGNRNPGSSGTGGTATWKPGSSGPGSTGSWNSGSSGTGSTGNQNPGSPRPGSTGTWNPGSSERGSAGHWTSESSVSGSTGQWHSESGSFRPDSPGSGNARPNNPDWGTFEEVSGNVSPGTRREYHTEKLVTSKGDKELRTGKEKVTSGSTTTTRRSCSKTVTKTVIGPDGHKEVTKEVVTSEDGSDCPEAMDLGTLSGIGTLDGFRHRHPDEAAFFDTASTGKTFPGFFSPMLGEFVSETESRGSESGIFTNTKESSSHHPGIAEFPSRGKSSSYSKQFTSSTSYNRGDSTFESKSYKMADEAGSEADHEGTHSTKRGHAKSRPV
T3 sequence (looked up) 2: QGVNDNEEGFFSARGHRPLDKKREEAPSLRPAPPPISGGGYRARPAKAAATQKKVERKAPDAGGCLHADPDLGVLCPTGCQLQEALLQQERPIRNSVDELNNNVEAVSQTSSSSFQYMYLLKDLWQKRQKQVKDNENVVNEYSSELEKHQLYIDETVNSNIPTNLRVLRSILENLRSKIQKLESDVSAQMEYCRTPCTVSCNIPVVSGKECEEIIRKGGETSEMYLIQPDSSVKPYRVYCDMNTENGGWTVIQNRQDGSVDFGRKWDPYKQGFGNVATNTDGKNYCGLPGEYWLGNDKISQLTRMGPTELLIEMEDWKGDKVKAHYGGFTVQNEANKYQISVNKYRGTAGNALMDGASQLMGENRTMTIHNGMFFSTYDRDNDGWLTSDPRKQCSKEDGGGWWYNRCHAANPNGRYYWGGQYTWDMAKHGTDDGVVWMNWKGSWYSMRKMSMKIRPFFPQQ
T3 sequence (looked up) 3: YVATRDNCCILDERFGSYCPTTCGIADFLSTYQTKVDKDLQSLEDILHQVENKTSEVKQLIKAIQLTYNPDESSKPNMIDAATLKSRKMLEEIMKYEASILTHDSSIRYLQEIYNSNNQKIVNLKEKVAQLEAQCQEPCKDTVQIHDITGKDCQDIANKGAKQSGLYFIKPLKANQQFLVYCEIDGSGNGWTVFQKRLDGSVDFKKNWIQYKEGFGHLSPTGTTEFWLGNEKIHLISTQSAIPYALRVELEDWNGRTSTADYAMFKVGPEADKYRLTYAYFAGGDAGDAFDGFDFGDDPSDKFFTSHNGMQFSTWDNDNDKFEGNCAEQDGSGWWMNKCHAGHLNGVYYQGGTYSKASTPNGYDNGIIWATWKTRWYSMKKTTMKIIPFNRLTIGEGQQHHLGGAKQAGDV
Put plainly: ELISA on coated human fibrinogen; curve did not reach saturation. The procedure: as §2

Test [5] deals with T2, human Fibrin (human fibrinogen clotted …). Put plainly: ELISA on plate-coated human fibrin (fibrinogen clotted in the well with thrombin/CaCl2), antibody titrated, A450. The procedure:
as §1

B1: mouse monoclonal anti-fibrin antibody 5B8 (antibody, V domains shown)
VH: QVQLQQPGAELVRPGTSVKLSCKASGYTFTSYWIHWVKQRPGQGLEWIGLIDPSDSYTNYNQKFRGKATLTVDTSSSTAYMQLSSLTSEDSAVYYCASSDPTGCWGQGTTLTVSP
VL: DIVMTQAAFSNPITLGTSASMSCRSSKSLLHSSGITYLSWYLQKPGQSPQLLIYQMSNLASGVPDRFSSSGSGTDFTLRISRVEAEDVGVYYCAQNLELPLTFGAGTKLELK
notes: also called murine 5B8; Murine 5B8 (from client)
Regarding B1, the concentration for a half-maximal effect (EC50 (read off the curve)) in test [1] was around 30 nM; in test [5], around 80 nM. For the same molecule, the figures for the EC50 in test [2], in test [3] and in test [4] were around 82.6 nM, around 29 nM and around 1600 nM, respectively.

The term EC50 (read off the curve) denotes the midpoint of the concentration-response curve. The low end stands for a more potent agent, the high end for a less potent agent. For orientation: EC50 means the concentration that produces a half-maximal response. High values mean lower potency in that assay, low ones higher potency in that assay.

(Values after patent US20240279357A1 (THERINI BIO, published 2024).)
